Legend:
Wnt signaling = experiment: Inhibition of Wnt3a-induced Super Top Flash reporter activity in STF-293 cells; format: cell-based, human; conditions: for IC50: Wnt3a-conditioned medium, 20-0.0003 μg/ml, triplicate
Protocol: STF cells are Human Embryonic Kidney (HEK)-293 cells stably transfected with the Super Top Flash (STF) reporter cassette in which the expression of the Luciferase (Luc) reporter gene is regulated by multiple copies of the TCF binding site upstream of a minimal promoter. A low basal Luc expression can be induced 30-60 fold in response to Wnt3a, providing a large window to assess the inhibitory activity of the anti-Fzd Abs.
To assess the mAbs, STF-293 cells were grown in DMEM-10% FBS. On day 1, 10,000 cells were plated per well in 96-well Optical Bottom White plates (Nunc #165306). The cells were incubated O.N. at 37° C. and 5% CO2. On day 2, the Abs to be tested were diluted to a final concentration of […] using culture medium. Seven 5-fold serial dilutions were performed. The STF-293 cells culture medium was replaced with a mixture containing 50 μA Ab dilution, 25 μA Wnt3a-conditioned medium from Wnt3a stable L-cells and 25 μA DMEM-10% FBS. For each Ab, the final concentrations tested were 20, 4, 0.8, 0.16, 0.03, 0.006, 0.0013, 0.0003 μg/ml. Each Ab concentration was tested in triplicate. A human anti-hapten Ab, LZ1, was used as negative control Ab. A non-Wnt3a-conditioned medium from parental L-cells was used as negative control inducer. The plates were returned to the incubator. Luciferase activity was measured on day 3, using Promega Steady Glo kit (VWR #PAE2550-A) according to the manufacturer specifications. The results were expressed in photons per sec. GraphPad Prism software was used to graph and analyze the data. Luciferase activities were plotted as a function of Ab concentration to establish dose-response curves. A non-linear regression was applied to the numbers to fit the curve and calculate IC50s.

Muc16 = Muc16 immunohistochemistry on treated OMP-PN13 tumors; format: in vivo, NOD/SCID mice; conditions: 3 doses of 10 mg/kg IP over 12 days; vs LZ1
Protocol: Frozen OMP-PN13 tumor cells that have been passaged twice in mice were obtained from Oncomed's tumor bank. They were thawed and injected subcutaneously into the left flank of NOD/SCID mice immediately following thawing. ˜ 25,000 viable cells were injected per animal. The mice were monitored weekly for tumor growth. After their onset, the size of the tumors was measured once weekly by caliper. 200-300 mm^3 tumor-bearing mice were dispatched in treatment groups that each contained 5 animals. […] Ab treatment was initiated the day after randomization. LZ1 was used as the negative control Ab. 3 doses of 10 mg/kg of Ab were administered via intra-peritoneal injection over a 12-day period. Mice were euthanized 24 hours after the last injection. Tumor, duodenum and liver were harvested.
Tumor tissues were fixed in formalin for paraffin embedding and sectioning. Muc16 detection was performed by immunohistochemical (1HC) to monitor the appearance of Mucin-producing cells. Mucins are specific for a subtype of differentiated cells in the pancreas, and as such are used as differentiation markers in the tumor model.
Formalin-fixed, paraffin-embedded (FFPE) sections were de-parrafinized. The slides were first de-parrafinized by sequential treatment with xylene twice for 5 minutes each. […]

FZD2 = experiment: Biacore affinity to recombinant Fzd Fc protein; format: binding, human; conditions: IgG antibody; Fzd Fc immobilized on CM5 Biacore chip
Protocol: (§1) The KDs of 18R8 and 18R5 antibodies were determined using the Biacore 2000 system from Biacore Lifescience (GE Healthcare). Specifically, purified anti-Fzd7 antibodies were serially diluted in 2-fold increments from 100 to 0.78 nM in HBS-P (0.01 M HEPES pH 7.4, 0.15 M NaCl, 0.005% v/v Surfactant P20). Each dilution was tested against recombinant Fzd Fc proteins immobilized onto a CM5 Biacore chip. The association and dissociation rates were measured and KD values determined using the Biaevaluation software program (Table 5, below).

FZD1 = experiment: Biacore affinity to recombinant Fzd Fc protein; format: binding, human; conditions: IgG antibody; Fzd Fc immobilized on CM5 Biacore chip
Protocol: as §1

FZD5 = experiment: Biacore affinity to recombinant Fzd Fc protein; format: binding, human; conditions: IgG antibody; Fzd Fc immobilized on CM5 Biacore chip
Chain of FZD5 (Q13467 27-150 limits assumed): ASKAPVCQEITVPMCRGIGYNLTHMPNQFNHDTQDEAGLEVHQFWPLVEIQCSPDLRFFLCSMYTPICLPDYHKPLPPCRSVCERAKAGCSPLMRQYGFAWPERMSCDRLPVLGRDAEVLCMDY
Protocol: as §1

[1] = test system: MMTV-WNT1 tumor derived cells; experiment: MMTV-WNT1 tumor growth; format: in vivo, NOD/SCID mice; conditions: 10 mg/kg intra-peritoneal twice weekly; p=0.002
Protocol: Female NOD/SCID mice were injected at age 5-7 weeks with 50,000 mouse mammary tumor virus (MMTV)-WNT1 tumor derived cells in the upper right mammary fat pad. […] Tumors from these mice were dissociated and these dissociated tumor cells used for tumor propagation purposes. Mice with tumor cells implanted in the mammary fat pad were monitored twice a week. Once tumors were palpable, tumors were measured twice weekly and tumor volume was determined using the formula ½(a×b^2); where a=length, and b=breadth. Data are expressed as mean and mean±S.E.M. Group means were compared using Student's two-tailed, unpaired t test. […] On day 19, mice with average tumor volume of 44 mm^3 were randomized into 2 groups of 10 animals each. Animals were injected with either control antibody, or 18R5 IgG antibody (10 mg/kg). Administration of the antibodies was performed via injection into the intra-peritoneal cavity, twice weekly.

| Molecule | IC50 relative to 18R5's (Wnt signaling) [fold] | IC50 (Wnt signaling) [nM] | Muc16 staining (Muc16) | Kd (FZD2) [nM] | Kd (FZD1) [nM] | Kd (FZD5) [nM] | tumor growth compared to control antibody [1] |
| --- | --- | --- | --- | --- | --- | --- | --- |
| 44R24: anti-FZD5/8 IgG antibody, VH SEQ ID NO:85, VL SEQ ID NO:86; ATCC deposit no. PTA-10311 (antibody, V domains shown, 44R24 VH; 44R24 VL, ATCC deposit no; PTA-10311) VH: EVQLVESGGGLVQPGGSLRLSCAASGFTFSSYYITWVRQAPGKGLEWVSTISYSSSNTYYADSVKGRFTISRDNSKNTLYLQMNSLRAEDTAVYYCARSIVFDYWGQGTLVTVSS VL: DIELTQPPSVSVAPGQTARISCSGDALGNRYVYWYQQKPGQAPVLVIPSGIPERFSGSNSGNTATLTISGTQAEDEADYYCGSWDTRPYPKYVFGGGTKLTVLG | 13 | 34.4 | slightly higher than in the LZ1-treated tumors |  |  |  |  |
| 18R5: human anti-FZD antibody; VH SEQ ID NO:10 (as 18R8), VL SEQ ID NO:14; binds FZD1, 2, 5, 7, 8 (antibody, V domains shown, 18R5/18R8 heavy chain variable region (VH); 18R5 light chain variable region (VL)) VH: EVQLVESGGGLVQPGGSLRLSCAASGFTFSHYTLSWVRQAPGKGLEWVSVISGDGSYTYYADSVKGRFTISSDNSKNTLYLQMNSLRAEDTAVYYCARNFIKYVFANWGQGTLVTVSS VL: DIELTQPPSVSVAPGQTARISCSGDNIGSFYVHWYQQKPGQAPVLVIYDKSNRPSGIPERFSGSNSGNTATLTISGTQAEDEADYYCQSYANTLSLVFGGGTKLTVLG |  | 2.73 | higher levels of staining | 3.3 | 4.6 | 1.9 | completely abolished tumor growth |
| 18R8: human anti-FZD antibody from phage display; VH SEQ ID NO:10, VL SEQ ID NO:12; binds FZD1, 2, 5, 7, 8 (antibody, V domains shown, 18R5/18R8 heavy chain variable region (VH); 18R8 light chain variable region (VL)) VH: EVQLVESGGGLVQPGGSLRLSCAASGFTFSHYTLSWVRQAPGKGLEWVSVISGDGSYTYYADSVKGRFTISSDNSKNTLYLQMNSLRAEDTAVYYCARNFIKYVFANWGQGTLVTVSS VL: DIELTQPPSVSVAPGQTARISCSGDKLGKKYASWYQQKPGQAPVLVIYEKDNRPSGIPERFSGSNSGNTATLTISGTQAEDEADYYCSSFAGNSLEVFGGGTKLTVLG |  |  |  | 6.2 | 15.6 | 4.2 | virtually eliminated |

— US8975044B2, “Polynucleotides encoding for frizzled-binding agents and uses thereof” (OncoMed Pharmaceuticals, Inc., priority 2008, dated 2015)
